We go through two molecules from patent US20160333113A1 (NATIONAL CANCER CENTER, published 2016).

The target in one assay is recombinant hTF (human, UniProt P13726 33-251). The experiment in a line: cell-based or functional assay.
Assay [1] deals with T1, human tissue factor (hTF), purified, construct not stated (human, UniProt P13726 33-251, limits assumed).
T1 construct: The SPR and the chimeric-antibody ELISA say only 'purified hTF' / 'hTF'; also called purified hTF; human TF
The experiment in a line: SPR, Biacore 2000, antibody immobilized on CM5 chip, purified hTF in flow. The protocol: The anti-hTF monoclonal antibodies (No. 1849 and No. 1859) were each immobilized on the surface of a Biacore CM5 chip. The CM5 chip, which had each antibody immobilized thereon, was set in a SPR device, and an antigen-containing buffer containing purified hTF was allowed to flow through its flow path. The dissociation constant between each of the antibodies and hTF was determined by this measurement system. It should be noted that the measurement conditions were as follows.

B1: anti-hTF monoclonal antibody (No. 1849) (antibody, IgG2b, V domains shown)
VH: EVQLVESGGGLVQSGRSLKLSCAASGFTFSDYNMAWIRQAPKKGLEWVAAIIYDGTRTYYRDSVRGRFTISRDNAKSTLYLQVDSLRSEDTATYYCATGDSYTNFAYWGQGTLVTVSS
VL: EIVLTQSPTTMAASPGEKVTLTCRASSSLSYMHWYQQRSGTSPKLWIYETSKLASGVPNRFSGSGSGTSFSLTIDSMETEDAATYYCQQGNSYPRTFGGGTKLELK
notes: Rat hybridoma IgG purified on Protein G; constant regions are not; also called rat anti-hTF monoclonal antibody (No. 1849)
For B1, the “Prolonged coagulation time ratio (prothrombin time ratio, PBS control = 1)” value in the assay with recombinant hTF was 5.54 ratio relative to PBS. In assay [1], this molecule registered a Kd of 0.0914 nM.

B2: anti-hTF monoclonal antibody (No. 1859) (antibody, IgG2a, V domains shown)
VH: EVMLVESGPGLVQPSQTLSLICTVSGFSLTDYSVHWVRQPPGKGLEWVGVMWSGGTTTFNSGLKSRLSISRDTSKSQVFLKMYSLRTEDTAVYYCTRERAGSPLNWFAYWGQGTLVTVSS
VL: DIVMTQSPASLSASLEEIVTITCQASQDIGNYLSWYQQKPGKSPHLLIHSSTSLADGVPSRFSGSRSGTQYSLKINRLQVEDTGVYYCLQHYSGSRTFGGGTNLELK
notes: Rat hybridoma IgG purified on Protein G; constant regions are not
For B2, the “Prolonged coagulation time ratio (prothrombin time ratio, PBS control = 1)” value in the assay with recombinant hTF is 1.22 ratio relative to PBS. This molecule also had a dissociation constant (Kd) in assay [1] of 0.189 nM.
